This is an account of results in patent US11795460B2, “Compositions and methods for TTR gene editing and treating ATTR amyloidosis” (Intellia Therapeutics, Inc., priority 2017, dated 2023).

Holding throughout (assay type): cell-based
In data set [1] the test system is TTR. The experiment in a line: TTR editing in primary human hepatocytes transfected with Spy Cas9 protein and sgRNAs (Table 12). The conditions noted are these: primary human hepatocytes transfected with Spy Cas9 protein (RNP) and sgRNAs. As for the experimental part:
(§1) Primary liver hepatocytes. Primary human liver hepatocytes (PHH) and primary cynomolgus liver hepatocytes (PCH) (Gibco) were cultured per the manufacturer's protocol (Invitrogen, protocol 11.28.2012). In brief, the cells were thawed and resuspended in hepatocyte thawing medium with supplements (Gibco, Cat. CM7000) followed by centrifugation at 100 g for 10 minutes for human and 80 g for 4 minutes for cyno. The supernatant was discarded and the pelleted cells resuspended in hepatocyte plating medium plus supplement pack (Invitrogen, Cat. A1217601 and CM3000). Cells were counted and plated on Bio-coat collagen I coated 96-well plates (ThermoFisher, Cat. 877272) at a density of 33,000 cells/well for human or 60,000 cells/well for cyno (or 65,000 cells/well when assaying effects on TTR protein, described further below). Plated cells were allowed to settle and adhere for 6 or 24 hours in a tissue culture incubator at 37° C. and 5% CO2 atmosphere. After incubation cells were checked for monolayer formation and media was replaced with hepatocyte culture medium with serum-free supplement pack (Invitrogen, Cat. A1217601 and CM4000).
[…] formation was performed prior to electroporation or transfection of Spy Cas9 protein loaded with guide RNAs (RNPs) onto cells. For dual guide (dgRNAs), individual crRNA and trRNA was pre-annealed by mixing equivalent amounts of reagent and incubating at 95° C. for 2 min and cooling to room temperature. Single guide (sgRNAs) were boiled at 95° C. for 2 min and cooling to room temperature. The boiled dgRNA or sgRNA was incubated with Spy Cas9 protein in Optimem for 10 minutes at room temperature to form a ribonucleoprotein (RNP) complex.
For RNP lipoplex transfections, cells were transfected with Lipofectamine RNAiMAX (ThermoFisher, Cat. 13778150) per the manufacturer's protocol. Cells were transfected with an RNP containing Spy Cas9 (10 nM), individual guide (10 nM), tracer RNA (10 nM), Lipofectamine RNAiMAX (1.0 μL/well) and OptiMem. RNP formation was performed as described above.
Transfected cells were harvested post-transfection at 24, 48, or 72 hours. The genomic DNA was extracted from each well of a 96-well plate using 50 μL/well BuccalAmp DNA Extraction solution (Epicentre, Cat. QE09050) per manufacturer's protocol. All DNA samples were subjected to PCR and subsequent NGS analyses, as described herein.
(§2) To quantitatively determine the efficiency of editing at the target location in the genome, sequencing was utilized to identify the presence of insertions and deletions introduced by gene editing.
(§3) Primers were designed around the target site within the gene of interest (e.g. TTR), and the genomic area of interest was amplified.
(§4) Additional PCR was performed per the manufacturer's protocols (Illumina) to add chemistry for sequencing. The amplicons were sequenced on an Illumina MiSeq instrument. The reads were aligned to a reference genome (e.g., the human reference genome (hg38), the cynomologus reference genome (mf5), the rat reference genome (rn6), or the mouse reference genome (mm10)) after eliminating those having low quality scores. The resulting files containing the reads were mapped to the reference genome (BAM files), where reads that overlapped the target region of interest were selected and the number of wild type reads versus the number of reads which contain an insertion, substitution, or deletion was calculated.
(§5) The editing percentage (e.g., the “editing efficiency” or “percent editing” or “indel frequency”) is defined as the total number of sequence reads with insertions/deletions (“indels”) or substitutions over the total number of sequence reads, including wild type.
Guides in modified sgRNA format targeting human and/or cyno TTR were delivered to primary human hepatocytes and primary cyno hepatocytes as described in Example 1. […]

Data set [2] has as its system TTR. Description: TTR editing in primary human hepatocytes treated with LNP formulated Spy Cas9 mRNA (SEQ ID NO: 2) and sgRNAs (Table 16). The following applies: LNP formulated Spy Cas9 mRNA (SEQ ID NO: 2) and sgRNA, 72 hours. The procedure: as §1
In general, the lipid nanoparticle components were dissolved in 100% ethanol with the lipid component of various molar ratios. The RNA cargos were dissolved in 25 mM citrate, 100 mM NaCl, pH 5.0, resulting in a concentration of RNA cargo of approximately 0.45 mg/mL. The LNPs were formulated with a lipid amine to RNA phosphate (N:P) molar ratio of about 4.5 or about 6, with the ratio of mRNA to gRNA at 1:1 by weight.
The LNPs were formed by microfluidic mixing of the lipid and RNA solutions using a Precision Nanosystems NanoAssemblr™ Benchtop Instrument, according to the manufacturer's protocol. A 2:1 ratio of aqueous to organic solvent was maintained during mixing using differential flow rates. After mixing, the LNPs were collected, diluted in water (approximately 1:1 v/v), held for 1 hour at room temperature, and further diluted with water (approximately 1:1 v/v) before final buffer exchange. The final buffer exchange into 50 mM Tris, 45 mM NaCl, 5% (w/v) sucrose, pH 7.5 (TSS) was completed with PD-10 desalting columns (GE). If required, formulations were concentrated by centrifugation with Amicon 100 kDa centrifugal filters (Millipore). The resulting mixture was then filtered using a 0.2 μm sterile filter. The final LNP was stored at −80° C. until further use.
as §2, §3, §4, §5
Lipid nanoparticle formulations of modified sgRNAs targeting human TTR and the cyno matched sgRNA sequences were tested on primary human hepatocytes and primary cyno hepatocytes in a dose response curve. Primary human and cyno hepatocytes were plated as described in Example 1. […]

In data set [3] the test system is off-target integration sites. The experiment in a line: Off-target oligo insertion based assay in primary human hepatocytes (Table 30). The following applies: TTR sgRNAs in PHH, 100 ng Cas9 mRNA, 25 nM sgRNA, 12.5 nM donor oligo. The procedure:
Off-target analysis of sgRNAs targeting TTR was performed in primary human hepatocytes (PHH) as described in Example 5, with the following modifications. PHH were plated at a density of 33,000 cells per well on collagen-coated 96-well plates as described in Example 1. Twenty-four hours post plating, cells were washed with media and transfected using Lipofectamine RNAiMAX (ThermoFisher, Cat. 13778150) as described in Example 1. Cells were transfected with a lipoplex containing 100 ng Cas9 mRNA, immediately followed by the addition of another lipoplex containing 25 nM of the sgRNA and 12.5 nM of the donor oligo (0.3 μL/well). Cells were lysed 48 hours post-transfection and gDNA was extracted and analyzed as further described in Example 5. The data is graphically represented in FIG. 20.
Fewer sites were detected in PHH for every guide tested as compared to the HekCas9 cell line, with no unique sites detected in PHH alone.

Strand notation (5' to 3'): a small letter for the sugar, then the base; units joined by * are phosphorothioate-linked, units joined directly phosphodiester-linked; [ ] holds rarer units or linkages, { } end groups; capitals alone tell only the bases. m = 2'-O-methyl; r = 2'-OH (RNA)

B1: G000495: TTR sgRNA modified sequence, Human, SEQ ID No. 102; guide sequence of CR003343 (nucleic acid)
guide: mC*mA*mG*rArGrGrArCrArCrUrUrGrGrArUrUrCrArCrGrUrUrUrUrArGrAmGmCmUmAmGmAmAmAmUmAmGmCrArArGrUrUrArArArArUrArArGrGrCrUrArGrUrCrCrGrUrUrArUrCrAmAmCmUmUmGmAmAmAmAmAmGmUmGmGmCmAmCmCmGmAmGmUmCmGmGmUmGmCmU*mU*mU*mU
With B1, in the data set on TTR [1], the “Avg % Deletion” value turned out to be 5.37%, the “Avg % Edit” value is reported as 50.80% and the “Avg % Insert” value is recorded as 45.80%. In addition, the “12.5 ng mRNA, 3.9 nM sgRNA Avg % Edit” value in the data set with TTR [2] was determined as 23.97%. For the same molecule, in data set [3], the “# Sites in PHH” value is reported as 1.

B2: G000497: TTR sgRNA modified sequence, Human, SEQ ID No. 104; guide sequence of CR003335 (nucleic acid)
guide: mC*mU*mG*rCrUrCrCrUrCrCrUrCrUrGrCrCrUrUrGrCrGrUrUrUrUrArGrAmGmCmUmAmGmAmAmAmUmAmGmCrArArGrUrUrArArArArUrArArGrGrCrUrArGrUrCrCrGrUrUrArUrCrAmAmCmUmUmGmAmAmAmAmAmGmUmGmGmCmAmCmCmGmAmGmUmCmGmGmUmGmCmU*mU*mU*mU
In the case of B2, in the data set with TTR [1], the “Avg % Deletion” value was determined as 8.73%, the “Avg % Edit” value is given as 59.67% and the “Avg % Insert” value was determined as 51.10%. In addition, in the data set on TTR [2], the “12.5 ng mRNA, 3.9 nM sgRNA Avg % Edit” value worked out at 15.10%. For the same molecule, the “# Sites in PHH” value in data set [3] is given as 3.

B3: G000493: TTR sgRNA modified sequence, Human, SEQ ID No. 100; guide sequence of CR003368 (nucleic acid)
guide: mA*mA*mG*rUrGrCrCrUrUrCrCrArGrUrArArGrArUrUrGrUrUrUrUrArGrAmGmCmUmAmGmAmAmAmUmAmGmCrArArGrUrUrArArArArUrArArGrGrCrUrArGrUrCrCrGrUrUrArUrCrAmAmCmUmUmGmAmAmAmAmAmGmUmGmGmCmAmCmCmGmAmGmUmCmGmGmUmGmCmU*mU*mU*mU
Regarding B3, in the data set on TTR [1], the “Avg % Deletion” value was 2.67%, the “Avg % Edit” value was determined as 41.40% and the “Avg % Insert” value is given as 38.90%. Besides, the “12.5 ng mRNA, 3.9 nM sgRNA Avg % Edit” value in the data set with TTR [2] was found to be 7.33%. Further, the “# Sites in PHH” value in data set [3] stood at 1.

B4: G000498: TTR sgRNA modified sequence, Human, SEQ ID No. 105; guide sequence of CR003359 (nucleic acid)
guide: mA*mG*mU*rGrArGrUrCrUrGrGrArGrArGrCrUrGrCrArGrUrUrUrUrArGrAmGmCmUmAmGmAmAmAmUmAmGmCrArArGrUrUrArArArArUrArArGrGrCrUrArGrUrCrCrGrUrUrArUrCrAmAmCmUmUmGmAmAmAmAmAmGmUmGmGmCmAmCmCmGmAmGmUmCmGmGmUmGmCmU*mU*mU*mU
For the molecule B4, in the data set with TTR [1], the “Avg % Deletion” value stood at 12.70%, the “Avg % Edit” value was determined as 72.80% and the “Avg % Insert” value is reported as 60.17%. For the same molecule, in the data set with TTR [2], the “12.5 ng mRNA, 3.9 nM sgRNA Avg % Edit” value was determined as 24.43%. In data set [3], the “# Sites in PHH” value is recorded as 19.

B5: G000496: TTR sgRNA modified sequence, Human, SEQ ID No. 103; guide sequence of CR005304 (nucleic acid)
guide: mG*mG*mC*rCrGrUrGrCrArUrGrUrGrUrUrCrArGrArArGrUrUrUrUrArGrAmGmCmUmAmGmAmAmAmUmAmGmCrArArGrUrUrArArArArUrArArGrGrCrUrArGrUrCrCrGrUrUrArUrCrAmAmCmUmUmGmAmAmAmAmAmGmUmGmGmCmAmCmCmGmAmGmUmCmGmGmUmGmCmU*mU*mU*mU
Consider B5, for which, in the data set on TTR [1], the “Avg % Deletion” value is reported as 27.67%, the “Avg % Edit” value was determined as 72.33% and the “Avg % Insert” value came out at 44.73%. In addition, in the data set with TTR [2], the “12.5 ng mRNA, 3.9 nM sgRNA Avg % Edit” value came out at 30.73%. Also, the “# Sites in PHH” value in data set [3] was 0.

B6: G000492: TTR sgRNA modified sequence, Human, SEQ ID No. 99; guide sequence of CR003342 (nucleic acid)
guide: mC*mU*mU*rCrUrCrUrArCrArCrCrCrArGrGrGrCrArCrGrUrUrUrUrArGrAmGmCmUmAmGmAmAmAmUmAmGmCrArArGrUrUrArArArArUrArArGrGrCrUrArGrUrCrCrGrUrUrArUrCrAmAmCmUmUmGmAmAmAmAmAmGmUmGmGmCmAmCmCmGmAmGmUmCmGmGmUmGmCmU*mU*mU*mU
Consider B6, for which, in the data set with TTR [1], the “Avg % Deletion” value was determined as 3.13%, the “Avg % Edit” value is recorded as 60.97% and the “Avg % Insert” value stood at 57.90%. The “12.5 ng mRNA, 3.9 nM sgRNA Avg % Edit” value in the data set on TTR [2] was found to be 15.87%. Besides, the “# Sites in PHH” value in data set [3] stood at 5.
